Experimental data reported in patent US20180231567A1.

Key:
[1] = biological target: serum IgE of the 10 allergic adults sensitized to peanut extract used for the inhibition experiments (Example 3) (human); test: ELISA cross-inhibition; Ara h 6 immobilized, sera pre-incubated with competing allergen at 0.1, 1 and 10 ug/ml
[2] = biological target: serum IgE of the 10 allergic adults sensitized to peanut extract used for the inhibition experiments (Example 3) (human); test: ELISA cross-inhibition; Ara h 7.0201 immobilized, sera pre-incubated with competing allergen at 0.1, 1 and 10 ug/ml

B1: Ara h 2 isotype 2.0201, as expressed in example 1 (His fusion protein) (protein)
chain: MSHHHHHHIEGRTMRQQWELQGDRRCQSQLERANLRPCEQHLMQKIQRDEDSYGRDPYSPSQDPYSPSQDPDRRDPYSPSPYDRRGAGSSQHQERCCNELNEFENNQRCMCEALQQIMENQSDRLQGRQQEQQFKRELRNLPQQCGLRAPQRCDLEVESGGRDRY
B1 was tested, and the % inhibition (median) [1] was 43% and the % inhibition (median) [2] was 16%.
